Reference: the RNAGym collection of RNA variant scans (doi:10.1021/acssynbio.7b00057)

B1: Pistol ribozyme (parent)
chain: GGGUCGUUGUUCCAUAAUCGCGUGGAUAUGGCACGCAAGUUUCUACCGGGCACCGUAAAUGUCCGACUGGAGCCGUUCGGGCGGCUAUAAACAGACCUCAGGCCCGAAGCGUGGCGGCACCUGCCGCCGGUGGUAAAAAAGAUCGGAAGAGCACACGUCU

Variants of: B1
Assay: aptazyme ON/OFF ratio, guanine; higher = stronger switching; co-transcriptional cleavage with and without guanine

Which “aptazyme ON/OFF ratio” value does the source give for U7C U8G U10G here?
Its value is 1.22.

For U7C U8G U10A, which “aptazyme ON/OFF ratio” value is on record?
The value was 2.08.

For U7C U8G U10C, which “aptazyme ON/OFF ratio” value is on record?
Its value is 1.34.

Which “aptazyme ON/OFF ratio” value does the source give for U7C U8G U10A U11G C12G C13G here?
Its value is 1.23.

For U7C U8G U10A U11G C12G C13A, which “aptazyme ON/OFF ratio” value is on record?
The value was 1.11.

For U7C U8G U10A U11G C12G C13U, which “aptazyme ON/OFF ratio” value is on record?
The value was 1.36.

For U7C U8G U11G C12A C13U, which “aptazyme ON/OFF ratio” value is on record?
Its value is 1.18.

With U7C U8G U11G C12A C13G as the variant, how does the “aptazyme ON/OFF ratio” value read?
Its value is 1.08.

Which “aptazyme ON/OFF ratio” value does the source give for U7C U8G U11G C12A C13A here?
Its value is 1.1.

For U7C U8G G9U U11A C12U C13A, which “aptazyme ON/OFF ratio” value is on record?
Its value is 1.43.

For U7C U8G G9U U11A C12U C13G, which “aptazyme ON/OFF ratio” value is on record?
Its value is 1.24.

For U7C U8G G9U U11A C12U C13U, which “aptazyme ON/OFF ratio” value is on record?
Its value is 1.45.

Which “aptazyme ON/OFF ratio” value does the source give for U7C U8G U10G U11A C12U here?
Its value is 1.37.

For U7C U8G U10G U11A C12G, which “aptazyme ON/OFF ratio” value is on record?
Its value is 1.14.

For U7C U8G U10G U11A C12A, which “aptazyme ON/OFF ratio” value is on record?
The value was 1.21.

For U7C U8G U10G U11C C13G, which “aptazyme ON/OFF ratio” value is on record?
The value was 1.2.

Which “aptazyme ON/OFF ratio” value does the source give for U7C U8G U10G U11C C13U here?
The value was 1.14.

With U7C U8G U10G U11C C13A as the variant, how does the “aptazyme ON/OFF ratio” value read?
Its value is 1.24.

For U7C U8G U11A C12A C13A, which “aptazyme ON/OFF ratio” value is on record?
The value was 1.09.

With U7C U8G U11A C12A C13U as the variant, how does the “aptazyme ON/OFF ratio” value read?
Its value is 1.13.

With U7C U8G U11A C12A C13G as the variant, how does the “aptazyme ON/OFF ratio” value read?
The value was 1.07.

With U7C U8G U10C U11A C13G as the variant, how does the “aptazyme ON/OFF ratio” value read?
The value was 1.16.

For U7C U8G U10C U11A C13U, which “aptazyme ON/OFF ratio” value is on record?
Its value is 3.36.

Which “aptazyme ON/OFF ratio” value does the source give for U7C U8G U10C U11A C13A here?
The value was 1.32.

With U7C U8G U10G C12G as the variant, how does the “aptazyme ON/OFF ratio” value read?
The value was 1.36.

Which “aptazyme ON/OFF ratio” value does the source give for U7C U8G U10G C12U here?
Its value is 1.24.

For U7C U8G U10G C12A, which “aptazyme ON/OFF ratio” value is on record?
The value was 1.21.

With U7C U8G U10C U11A C12A C13G as the variant, how does the “aptazyme ON/OFF ratio” value read?
Its value is 1.14.

For U7C U8G U10C U11A C12A C13A, which “aptazyme ON/OFF ratio” value is on record?
The value was 1.19.

Which “aptazyme ON/OFF ratio” value does the source give for U7C U8G U10C U11A C12A C13U here?
Its value is 1.33.

Which “aptazyme ON/OFF ratio” value does the source give for U7C U8G G9U U10G U11C C12A C13U here?
Its value is 1.15.

Which “aptazyme ON/OFF ratio” value does the source give for U7C U8G G9U U10G U11C C12A C13A here?
The value was 1.11.

With U7C U8G G9U U10G U11C C12A C13G as the variant, how does the “aptazyme ON/OFF ratio” value read?
The value was 1.06.

With U7C U8G G9U U10G U11C C12U C13G as the variant, how does the “aptazyme ON/OFF ratio” value read?
The value was 1.08.

For U7C U8G G9U U10G U11C C12U C13A, which “aptazyme ON/OFF ratio” value is on record?
Its value is 1.13.

For U7C U8G G9U U10G U11C C12U C13U, which “aptazyme ON/OFF ratio” value is on record?
Its value is 1.04.

Which “aptazyme ON/OFF ratio” value does the source give for U7C U8G G9U U11C here?
Its value is 1.13.

Which “aptazyme ON/OFF ratio” value does the source give for U7C U8G G9U U11G here?
Its value is 1.2.

With U7C U8G G9U U11A as the variant, how does the “aptazyme ON/OFF ratio” value read?
Its value is 1.58.

For U7C U8G G9U U11A C12U, which “aptazyme ON/OFF ratio” value is on record?
The value was 1.39.

Which “aptazyme ON/OFF ratio” value does the source give for U7C U8G G9U U11A C12A here?
The value was 1.52.

For U7C U8G G9U U11A C12G, which “aptazyme ON/OFF ratio” value is on record?
Its value is 1.18.

Which “aptazyme ON/OFF ratio” value does the source give for U7C U8G G9U U10G U11G C12A here?
Its value is 1.22.

With U7C U8G G9U U10G U11G C12U as the variant, how does the “aptazyme ON/OFF ratio” value read?
The value was 1.28.

Which “aptazyme ON/OFF ratio” value does the source give for U7C U8G G9U U10G U11G C12G here?
Its value is 1.22.

For U7C U8G U10A U11A C13G, which “aptazyme ON/OFF ratio” value is on record?
The value was 1.13.

Which “aptazyme ON/OFF ratio” value does the source give for U7C U8G U10A U11A C13A here?
Its value is 1.12.

For U7C U8G U10A U11A C13U, which “aptazyme ON/OFF ratio” value is on record?
Its value is 1.29.

For U7C U8G U10G U11A, which “aptazyme ON/OFF ratio” value is on record?
Its value is 1.17.

For U7C U8G U10G U11G, which “aptazyme ON/OFF ratio” value is on record?
The value was 1.63.

With U7C U8G U10G U11C as the variant, how does the “aptazyme ON/OFF ratio” value read?
Its value is 1.09.

With U7C U8G U10G U11G C13U as the variant, how does the “aptazyme ON/OFF ratio” value read?
Its value is 1.39.

With U7C U8G U10G U11G C13G as the variant, how does the “aptazyme ON/OFF ratio” value read?
The value was 1.28.

With U7C U8G U10G U11G C13A as the variant, how does the “aptazyme ON/OFF ratio” value read?
The value was 1.21.

Which “aptazyme ON/OFF ratio” value does the source give for U7C U8G G9U U11C C13G here?
Its value is 1.02.

With U7C U8G G9U U11C C13A as the variant, how does the “aptazyme ON/OFF ratio” value read?
Its value is 1.12.

For U7C U8G G9U U11C C13U, which “aptazyme ON/OFF ratio” value is on record?
The value was 1.09.

For U7C U8G U10G C12A C13U, which “aptazyme ON/OFF ratio” value is on record?
Its value is 1.33.

With U7C U8G U10G C12A C13A as the variant, how does the “aptazyme ON/OFF ratio” value read?
The value was 1.24.

With U7C U8G U10G C12A C13G as the variant, how does the “aptazyme ON/OFF ratio” value read?
Its value is 1.09.

For U7C U8G U10G U11A C12G C13U, which “aptazyme ON/OFF ratio” value is on record?
The value was 1.14.

For U7C U8G U10G U11A C12G C13G, which “aptazyme ON/OFF ratio” value is on record?
The value was 1.21.

For U7C U8G U10G U11A C12G C13A, which “aptazyme ON/OFF ratio” value is on record?
Its value is 1.1.

For U7C U8G U10A U11A C12A, which “aptazyme ON/OFF ratio” value is on record?
The value was 1.14.

Which “aptazyme ON/OFF ratio” value does the source give for U7C U8G U10A U11A C12U here?
Its value is 1.57.

Which “aptazyme ON/OFF ratio” value does the source give for U7C U8G U10A U11A C12G here?
Its value is 1.08.

With U7C U8G U10A U11C C13G as the variant, how does the “aptazyme ON/OFF ratio” value read?
Its value is 1.03.

With U7C U8G U10A U11C C13U as the variant, how does the “aptazyme ON/OFF ratio” value read?
The value was 1.01.

For U7C U8G U10A U11C C13A, which “aptazyme ON/OFF ratio” value is on record?
The value was 1.02.

For U7C U8G U10C U11A C12U C13U, which “aptazyme ON/OFF ratio” value is on record?
Its value is 1.24.

Which “aptazyme ON/OFF ratio” value does the source give for U7C U8G U10C U11A C12U C13A here?
The value was 1.15.

Which “aptazyme ON/OFF ratio” value does the source give for U7C U8G U10C U11A C12U C13G here?
Its value is 1.11.

Which “aptazyme ON/OFF ratio” value does the source give for U7C U8G U10G U11G C12A C13U here?
The value was 1.26.

Which “aptazyme ON/OFF ratio” value does the source give for U7C U8G U10G U11G C12A C13G here?
The value was 1.19.

Which “aptazyme ON/OFF ratio” value does the source give for U7C U8G U10G U11G C12A C13A here?
Its value is 1.11.

Which “aptazyme ON/OFF ratio” value does the source give for U7C U8G G9U U11C C12A C13G here?
Its value is 1.13.

With U7C U8G G9U U11C C12A C13A as the variant, how does the “aptazyme ON/OFF ratio” value read?
Its value is 1.31.

For U7C U8G G9U U11C C12A C13U, which “aptazyme ON/OFF ratio” value is on record?
The value was 1.33.

With U7C U8G U10C U11G C12U as the variant, how does the “aptazyme ON/OFF ratio” value read?
Its value is 1.97.

For U7C U8G U10C U11G C12A, which “aptazyme ON/OFF ratio” value is on record?
Its value is 2.9.

With U7C U8G U10C U11G C12G as the variant, how does the “aptazyme ON/OFF ratio” value read?
Its value is 1.32.

With U7C U8G U10G U11A C13G as the variant, how does the “aptazyme ON/OFF ratio” value read?
Its value is 1.13.

For U7C U8G U10G U11A C13U, which “aptazyme ON/OFF ratio” value is on record?
Its value is 1.28.
